Article PMC3597468 (Journal of controlled release : official journal of the …, 2012)

Target: the molecule itself
Test: cross-linking

B1: Catalase, from bovine liver (enzyme, UniProt P00432 1-527, looked up)
chain: MADNRDPASDQMKHWKEQRAAQKPDVLTTGGGNPVGDKLNSLTVGPRGPLLVQDVVFTDEMAHFDRERIPERVVHAKGAGAFGYFEVTHDITRYSKAKVFEHIGKRTPIAVRFSTVAGESGSADTVRDPRGFAVKFYTEDGNWDLVGNNTPIFFIRDALLFPSFIHSQKRNPQTHLKDPDMVWDFWSLRPESLHQVSFLFSDRGIPDGHRHMNGYGSHTFKLVNANGEAVYCKFHYKTDQGIKNLSVEDAARLAHEDPDYGLRDLFNAIATGNYPSWTLYIQVMTFSEAEIFPFNPFDLTKVWPHGDYPLIPVGKLVLNRNPVNYFAEVEQLAFDPSNMPPGIEPSPDKMLQGRLFAYPDTHRHRLGPNYLQIPVNCPYRARVANYQRDGPMCMMDNQGGAPNYYPNSFSAPEHQPSALEHRTHFSGDVQRFNSANDDNVTQVRTFYLKVLNEEQRKRLCENIAGHLKDAQLFIQKKAVKNFSDVHPEYGSRIQALLDKYNEEKPKNAVHTYVQHGSHLSAREKANL
- binding result: binds
